Our source for the Kd, koff and kon values is patent publication US20230341395A1.

The target in the assay is Recombinant SARS-CoV-2 Spike protein antigen (Z03501, Genscript) (SARS-CoV-2) (UniProt P0DTC2).

The term Kd denotes the free concentration of one partner at which half of the binding sites on the other are occupied at equilibrium, for simple one-to-one binding. As usually defined, the koff is the rate constant with which the complex falls apart. What is called kon is a measure of how fast the partners come together.

As for “Monoclonal antibody against the SARS-CoV-2 Spike protein (A02038, Genscript)”, the dissociation constant (Kd) amounted to 2.39 nM, the koff came out at 0.000603 s⁻¹ and the kon worked out at 252000 M⁻¹ s⁻¹.
